The term Kd denotes the equilibrium constant for the complex coming apart. Read a high Kd as lower affinity.

We go through 22 molecules from patent publication US20260337278 (published 2026).

B1: SI-95X40 (antibody)
chain 1: not shown
chain 2: DIQMTQSPSSLSASVGDRVTITCRSSQNIVHSNGNTYLDWYQQTPGKAPKLLIYKVSNRFSGVPSRFSGSGSGTDFTFTISSLQPEDIATYYCFQYSHVPWTFGQGTKLQITRTVAAPSVFIFPPSDEQLKSGTASVVCLLNNFYPREAKVQWKVDNALQSGNSQESVTEQDSKDSTYSLSSTLTLSKADYEKHKVYACEVTHQGLSSPVTKSFNRGEC
B2: SI-95X51 (antibody)
chain 1: not shown
chain 2: DIVMTQSPSSVSLSLGDRVTITCHSSQDINSNIGWLQQKPGKAFKGLIYHGTNLDDGVPSRFSGSGSGADYTLTISSLQAEDFATYYCVQYAQFPWTFGPGTKLEIKRTVAAPSVFIFPPSDEQLKSGTASVVCLLNNFYPREAKVQWKVDNALQSGNSQESVTEQDSKDSTYSLSSTLTLSKADYEKHKVYACEVTHQGLSSPVTKSFNRGEC
B3: SI-95X54 (antibody)
chain 1: not shown
chain 2: B2 chain 2
B4: SI-95X56 (antibody)
chain 1: not shown
chain 2: B2 chain 2
B5: SI-95X52 (antibody)
chain 1: not shown
chain 2: B2 chain 2
B6: SI-95X63 (antibody)
chain 1: not shown
chain 2: DILMTQSPSSMSVSLGDTVSITCHSSQDINSNIGWLQQRPGKSFKGLIYHGTNLDDEVPSRFSGSGSGADYSLTISSLESEDFADYYCVQYAQFPWTFGGGTKLEIKRTVAAPSVFIFPPSDEQLKSGTASVVCLLNNFYPREAKVQWKVDNALQSGNSQESVTEQDSKDSTYSLSSTLTLSKADYEKHKVYACEVTHQGLSSPVTKSFNRGEC
B7: SI-95X64 (antibody)
chain 1: not shown
chain 2: B6 chain 2
B8: SI-95X44 (antibody)
chain 1: not shown
chain 2: B6 chain 2
B9: SI-95X68 (antibody)
chain 1: not shown
chain 2: B6 chain 2
B10: SI-95X65 (antibody)
chain 1: not shown
chain 2: B6 chain 2
B11: SI-95X46 (antibody)
chain 1: not shown
chain 2: EIVLTQSPSTLSVSPGERATFSCRASQSIGTNIHWYQQKPGKPPRLLIKYASESISGIPDRFSGSGSGTEFTLTISSVQSEDFAVYYCQQNNNWPTTFGPGTKLTVLRTVAAPSVFIFPPSDEQLKSGTASVVCLLNNFYPREAKVQWKVDNALQSGNSQESVTEQDSKDSTYSLSSTLTLSKADYEKHKVYACEVTHQGLSSPVTKSFNRGEC
B12: SI-95X49 (antibody)
chain 1: not shown
chain 2: B11 chain 2 with N92F
B13: SI-95X47 (antibody)
chain 1: not shown
chain 2: B11 chain 2
B14: SI-95X50 (antibody)
chain 1: not shown
chain 2: B11 chain 2
B15: SI-95X45 (antibody)
chain 1: not shown
chain 2: B11 chain 2
B16: SI-95X58 (antibody)
chain 1: not shown
chain 2: EIVLTQSPSTLSVSPGERATFSCRASQSIGTNIHWYQQKPGKPPRLLIKYASESISGIPDRFSGSGSGTEFTLTISSVQSEDFAVYYCQQNNNWPTTFGPGTKLTVLRTVAAPSVFIFPPSDEQLKSGTASVVCLLNNFYPREAKVQWKVDNALQSGNSQESVTEQDSKDSTYSLSSTLTLSKADYEKHKVYACEVTHQGLSSPVTKSFNRGECGGGGSGGGGGSGGGGSGGGGSQVQLQESGPSLVKPSQTLSLTCTVSGYSITSDFAWNWIRQFPGRKLEWMGYISYSGNTRYNPSLKSRFTISRDTSKNQFYLKLRSVTIADTAVYYCVTAGRGFPYWGQGTLVTVSSGGGGSGGGGSGGGGSDIVMTQSPSSVSLSLGDRVTITCHSSQDINSNIGWLQQKPGKAFKGLIYHGTNLDDGVPSRFSGSGSGADYTLTISSLQAEDFATYYCVQYAQFPWTFGPGTKLEIK
B17: SI-95X62 (antibody)
chain 1: not shown
chain 2: B16 chain 2 with N92F
B18: SI-95X57 (antibody)
chain 1: not shown
chain 2: B16 chain 2
B19: SI-95X59 (antibody)
chain 1: not shown
chain 2: B16 chain 2
B20: SI-95X60 (antibody)
chain 1: not shown
chain 2: B16 chain 2
B21: SI-95X6 (antibody)
chain 1: not shown
chain 2: B6 chain 2
B22: SI-95X10 (antibody)
chain 1: not shown
chain 2: B6 chain 2

Changes are numbered by the printed parent chain.

The first test has as its target T1, EGFRvIII (human, UniProt P00533). Kind of test: BLI.
B1 yielded a Kd of 1.16 nM.
In the case of B2, binding was put at a Kd of 1.16 nM.
With B3, the Kd amounted to 1.37 nM.
The molecule B4 yielded a Kd of 1.93 nM.
Same read-out and setting: as for B5, the figure is 1.47 nM; as for B6, 0.493 nM; as for B7, 0.638 nM.
Turning to B8, the dissociation constant Kd was determined as 0.466 nM.
Same read-out and setting: as for B9, the figure is 0.865 nM; as for B10, 0.804 nM; as for B11, 0.358 nM.
In turn, B12 came in with a Kd of 0.291 nM.
As for B13, the Kd was determined as 0.272 nM.
The molecule B14 had a Kd of 0.207 nM.
As to B15, the Kd was 1.11 nM.
Turning to B16, binding was characterised by a dissociation constant (Kd) of 0.807 nM.
For the molecule B17, binding was characterised by a dissociation constant (Kd) of 1.02 nM.
Regarding B18, the dissociation constant (Kd) came to 0.549 nM.
On to B19, for which the dissociation constant Kd amounted to 1.03 nM.
On the same count and under the same terms, as for B20, the figure is 1.95 nM.

The target in the next test is EGFR (wild-type, His-tagged or biotinylated) (human, UniProt P00533). Briefly: BLI. Background: BLI is a label-free optical method that tracks binding on a fibre tip over time.
For the molecule B1, the Kd was 0.954 nM.
On to B2, for which the Kd was found to be 1.81 nM.
As to B3, binding was put at a Kd of 25.7 nM.
Regarding B4, the affinity, expressed as Kd, was 6.88 nM.
Consider B5, for which the Kd amounted to 19.3 nM.
On the same count and under the same terms, next, B6: 0.497 nM; B7: 2.31 nM.
Take B8: the Kd is 1.81 nM.
As for B9, binding was characterised by a dissociation constant (Kd) of 1.87 nM.
Molecule B10 returned a Kd of 3.07 nM.
The molecule B11 had an equilibrium dissociation constant (Kd) of 7.3 nM.
B12 gave a Kd of 17.6 nM.
With B13, the Kd is 20.6 nM.
In the case of B14, the equilibrium dissociation constant (Kd) was determined as 1.38 nM.
In turn, B15 registered a Kd of 4.61 nM.
On the same count and under the same terms, next, B16: 16 nM; B17: 8.16 nM; B18: 0.768 nM.
B19 returned a Kd of 23.6 nM.
Still for that read-out and setting: as for B20, the figure is 4.98 nM.

In a further test the target is T1, EGFRvIII. Kind of test: BLI. The source holds these as a separate data set.
Molecule B21 gave a Kd of 6.35 nM.
B22 returned a Kd of 7 nM.
